Measured values reported in patent publication US20240254184A1 (SALUBRIS BIOTHERAPEUTICS, published 2024).

Target: T1, recombinant mouse CTLA-4 protein (mouse, UniProt P09793 36-162, limits assumed)
T1 construct: also called CTLA-4 protein from mice
Experiment: ELISA, CTLA-4 protein coated on plate, anti-human IgG Fc-peroxidase detection
Method: The binding activity of the anti-CTLA-4-IL-15Ra-sushi-IL-15 fusion protein to recombinant CTLA-4 protein which originated from different species, including human, cynomolgus monkey, rat, and mouse, was determined by Enzyme Linked Immunosorbent Assay (ELISA). Briefly, 96-well plates were coated overnight at 4° C. with […] of CTLA-4 protein diluted in PBS. Plates were blocked with 1% bovine serum albumin (BSA) for an hour at room temperature, and then incubated for additional 2 hours with the anti-CTLA-4-IL-15Ra-sushi-IL-15 fusion protein, Ipilimumab, or human IgG1 isotype control, at a 2-fold serial dilution starting from 1 μg/mL. Goat anti-human IgG (Fc specific)-peroxidase antibody (Sigma, 1:5000 dilution) was added to the plates and incubated for 1 hour at room temperature. After washing, the 3, 3′, 5, 5′-Tetramethylbenzidine (TMB) substrate was added to the wells to develop color and the absorbance at 450 nm was measured using the Multiskan plate reader (Thermo). Optical Density 450 (OD450) values were plotted against antibody concentration.

B1: Ipilimumab (antibody, V domains shown)
VH: QVQLVESGGGVVQPGRSLRLSCAASGFTFSSYTMHWVRQAPGKGLEWVTFISYDGNNKYYADSVKGRFTISRDNSKNTLYLQMNSLRAEDTAIYYCARTGWLGPFDYWGQGTLVTVSS
VL: not shown
notes: also called anti CTLA-4 antibody; CTLA-4 antibody
- binding result: no binding
